B1: R2D9 CDR3-knob (peptide)
peptide: ITHKTCPNGYNWFDRCCSWDGTCGDGCCSNRAWPSGNGRADSSIGETYGYEF
modifications: not checked
B2: purified R2G3 CDR3-knob (after enterokinase cleavage from trxA) (peptide)
peptide: EGDKTCPDGYEHTCGCIGGCGCKRSACIGALCCQASLGGWLSDGETYTYEF
modifications: not checked

Assays:
[1] = target: SARS-CoV-2 B.1.351 ('SA', beta) variant spike protein on pseudotyped virus or live virus (SARS-CoV-2 (B.1.351)), P0DTC2; assay: cell-based or functional assay
[2] = target: SARS-CoV-2 B.1.1.7 ('UK', alpha) variant spike protein on pseudotyped virus or live virus (SARS-CoV-2 (B.1.1.7)); assay: cell-based or functional assay

| Binder | pseudovirus neutralization, ng/mL (quantity not given) [1] | live SARS CoV-2 neutralization, ng/mL (quantity not given) [2] | live SARS CoV-2 neutralization, ng/mL (quantity not given) [1] |
| --- | --- | --- | --- |
| B1 | 22.6 ng/mL |  |  |
| B2 | 66.2 ng/mL | 2.48 ng/mL | 374 ng/mL |
